Molecular target: GST-tagged human EZH2 (human, UniProt Q15910-2 1-751)
Assay: pull-down

B1: 6×His-tagged human DDX1 (natural protein, UniProt Q92499-1 1-740, looked up)
chain: MAAFSEMGVMPEIAQAVEEMDWLLPTDIQAESIPLILGGGDVLMAAETGSGKTGAFSIPVIQIVYETLKDQQEGKKGKTTIKTGASVLNKWQMNPYDRGSAFAIGSDGLCCQSREVKEWHGCRATKGLMKGKHYYEVSCHDQGLCRVGWSTMQASLDLGTDKFGFGFGGTGKKSHNKQFDNYGEEFTMHDTIGCYLDIDKGHVKFSKNGKDLGLAFEIPPHMKNQALFPACVLKNAELKFNFGEEEFKFPPKDGFVALSKAPDGYIVKSQHSGNAQVTQTKFLPNAPKALIVEPSRELAEQTLNNIKQFKKYIDNPKLRELLIIGGVAARDQLSVLENGVDIVVGTPGRLDDLVSTGKLNLSQVRFLVLDEADGLLSQGYSDFINRMHNQIPQVTSDGKRLQVIVCSATLHSFDVKKLSEKIMHFPTWVDLKGEDSVPDTVHHVVVPVNPKTDRLWERLGKSHIRTDDVHAKDNTRPGANSPEMWSEAIKILKGEYAVRAIKEHKMDQAIIFCRTKIDCDNLEQYFIQQGGGPDKKGHQFSCVCLHGDRKPHERKQNLERFKKGDVRFLICTDVAARGIDIHGVPYVINVTLPDEKQNYVHRIGRVGRAERMGLAISLVATEKEKVWYHVCSSRGKGCYNTRLKEDGGCTIWYNEMQLLSEIEEHLNCTISQVEPDIKVPVDEFDGKVTYGQKRAAGGGSYKGHVDILAPTVQELAALEKEAQTSFLHLGYLPNQLFRTF
B1: binds.
